Test results from paper doi:10.1101/2021.11.08.467742 (bioRxiv, 2021).
Where a chain is given by its changes, count along the chain named. Names may count otherwise.

B1: Escherichia coli FtsA, full length (natural protein, E. coli, UniProt P0ABH0 1-420, looked up)
chain: MIKATDRKLVVGLEIGTAKVAALVGEVLPDGMVNIIGVGSCPSRGMDKGGVNDLESVVKCVQRAIDQAELMADCQISSVYLALSGKHISCQNEIGMVPISEEEVTQEDVENVVHTAKSVRVRDEHRVLHVIPQEYAIDYQEGIKNPVGLSGVRMQAKVHLITCHNDMAKNIVKAVERCGLKVDQLIFAGLASSYSVLTEDERELGVCVVDIGGGTMDIAVYTGGALRHTKVIPYAGNVVTSDIAYAFGTPPSDAEAIKVRHGCALGSIVGKDESVEVPSVGGRPPRSLQRQTLAEVIEPRYTELLNLVNEEILQLQEKLRQQGVKHHLAAGIVLTGGAAQIEGLAACAQRVFHTQVRIGAPLNITGLTDYAQEPYYSTAVGLLHYGKESHLNGEAEVEKRVTASVGSWIKRLNSWLRKEF
notes: FtsA, Escherichia coli, full-length protein; also called EcFtsA; E. coli FtsA; source: E. coli C41(DE3), purified (HisTrap, chitin resin with intein cleavage, SEC); not shown: intein-CBD-12H, C-terminal, cleaved
B2: Escherichia coli FtsA I143L (FtsN suppressor mutant), full length (natural protein, E. coli, UniProt P0ABH0 1-420, looked up)
chain: B1 chain with I143L
notes: FtsA, Escherichia coli, full-length protein with I143L; also called EcFtsA^I143L; source: E. coli C41(DE3), purified (HisTrap, chitin resin with intein cleavage, SEC); not shown: intein-CBD-12H, C-terminal, cleaved
B3: Escherichia coli FtsA G50E (ZipA suppressor and filament architecture mutant), full length (natural protein, E. coli, UniProt P0ABH0 1-420, looked up)
chain: B1 chain with G50E
notes: FtsA, Escherichia coli, full-length protein with G50E; also called EcFtsA^G50E; source: E. coli C41(DE3), purified (HisTrap, chitin resin with intein cleavage, SEC); not shown: intein-CBD-12H, C-terminal, cleaved
B4: Escherichia coli FtsA E124A (FtsN suppressor mutant), full length (natural protein, E. coli, UniProt P0ABH0 1-420, looked up)
chain: B1 chain with E124A
notes: FtsA, Escherichia coli, full-length protein with E124A; also called EcFtsA^E124A; source: E. coli C41(DE3), purified (HisTrap, chitin resin with intein cleavage, SEC); not shown: intein-CBD-12H, C-terminal, cleaved

Molecular target: the molecule itself
Test: negative stain electron microscopy on supported lipid monolayers; full-length FtsA at 0.1-0.2 mg/ml with 1 mM ATP, without or with FtsN peptide (up to 10-fold molar excess), on E. coli polar lipid monolayers; binding buffer pH 7.7

Binding result, binds:
B1
B2
B3
B4
